Molecular target: 6xHis-XRCC4^1-164 (C-to-A), wildtype for the SIMs (human) (UniProt Q13426)
Test: SPR

Substance: polySUMO2 chains (enzymatically linked via the internal K11) (from UniProt P61956 1-95)
- fold increase in KD against full-length XRCC4: 3 fold
